Measured values taken from paper PMC3145919 (Neuron, 2011).
Positions count from the first letter of the chain named. In names and notes the source's numbering stands. Read-outs that look alike come from different tables or passages of the source.

Tests used:
[1] = molecular target: GluR6Δ2 F58A mutant ATD (rat) (UniProt P42260); test: AUC
[2] = molecular target: GluR6Δ2 ATD (G215N/M217T glycan wedge mutant) (rat) (UniProt P42260); test: AUC
[3] = molecular target: KA2 amino terminal domain (ATD), wild type (rat) (UniProt Q63273); test: AUC
[4] = molecular target: KA2 amino terminal domain (ATD), wild type (rat) (UniProt Q63273); test: AUC; remark: listed apart in the source
[5] = molecular target: the molecule itself; test: SEC-MALS
[6] = molecular target: the molecule itself; test: AUC
[7] = molecular target: the molecule itself; test: AUC; remark: listed apart in the source
[8] = molecular target: the molecule itself; test: AUC; remark: listed apart in the source

KA2 Y57A mutant ATD (domain or fragment)
Kd [1]: 1.63 µM | Kd [2]: 0.14 µM

KA2 Y57A/E156A mutant ATD (domain or fragment)
Kd [1]: 2 µM

KA2 Y57A/L163A mutant ATD (domain or fragment)
Kd [1]: 6.7 µM

KA2 Y57A/S165G/T168A mutant ATD (domain or fragment)
Kd [1]: 13 µM

KA2 amino terminal domain (ATD), wild type (from UniProt Q63273 20-406) (domain or fragment)
Kd [3]: 350 µM | Kd [4]: 410 µM

B1: GluR6 amino terminal domain (ATD), wild type (domain or fragment, rat)
chain: TTHVLRFGGIFEYVESGPMGAEELAFRFAVNTINRNRTLLPNTTLTYDTQKINLYDSFEASKKACDQLSLGVAAIFGPSHSSSANAVQSICNALGVPHIQTRWKHQVSDNKDSFYVSLYPDFSSLSRAILDLVQFFKWKTVTVVYDDSTGLIRLQELIKAPSRYNLRLKIRQLPADTKDAKPLLKEMKRGKEFHVIFDCSHEMAAGILKQALAMGMMTEYYHYIFTTLDLFALDVEPYRYSGVNMTGFRILNTENTQVSSIIEKWSMERLQAPPKPDSGLLDGFMTTDAALMYDAVHVVSVAVQQFPQMTVSSLQCNRHKPWRFGTRFMSLIKEAHWEGLTGRITFNKTNGLRTDFDLDVISLKEEGLEKIGTWDPASGLNMTESQKGK
modifications: N-linked glycans
binding result [5]: binds

B2: GluR6Δ2 ATD (G215N/M217T glycan wedge mutant) (domain or fragment, rat)
chain: B1 chain with G215N, M217T
modifications: N-linked glycans, one introduced by the mutations (glycan wedge)
Kd [6]: 0.35 µM | stoichiometry N [5]: 2 | Kd [7]: 0.25 µM

B3: GluR6Δ1 ATD (A213N/G215S glycan wedge mutant) (domain or fragment, rat)
chain: B1 chain with A213N, G215S
modifications: N-linked glycans, one introduced by the mutations (glycan wedge)
stoichiometry N [5]: 2

B4: wt GluR6/KA2 ATD heterodimer (complex, rat)
chain 1: B1 chain
chain 2: VLSSLRMAAILDDQTVCGRGERLALALAREQINGIIEVPAKARVEVDIFELQRDSQYETTDTMCQILPKGVVSVLGPSSSPASASTVSHICGEKEIPHIKVGPEETPRLQYLRFASVSLYPSNEDVSLAVSRILKSFNYPSASLICAKAECLLRLEELVRGFLISKETLSVRMLDDSRDPTPLLKEIRDDKVSTIIIDANASISHLVLRKASELGMTSAFYKYILTTMDFPILHLDGIVEDSSNILGFSMFNTSHPFYPEFVRSLNMSWRENCEASTYPGPALSAALMFDAVHVVVSAVRELNRSQEIGVKPLACTSANIWPHGTSLMNYLRMVEYDGLTGRVEFNSKGQRTNYTLRILEKSRQGHREIGVWYSNRTLAMNATTLDI
modifications: N-linked glycans | N-linked glycans
Kd [8]: 6.2 µM
